Among the data in paper PMC9278655 are stoichiometry N values, retold here.

For one assay, the target named is Crimson. As to the kind of experiment: SEC; HPLC (LC-20A), Superdex 200 10/300 GL; 200 uL of fluorescent protein loaded at 10 uM; 0.5 mL/min; 50 mM PBS pH 7. (In gel filtration, larger molecules generally elute earlier.)
The next assay addresses mKate2. Described as above.

Regarding Crimson, in the assay with Crimson, the stoichiometry N (usually the number of molecules, sites or subunits per partner or assembly) was found to be 2.
Turning to mKate2, the stoichiometry N with mKate2 was found to be 2.
